# Laboratory results published in the DeepSol protein solubility set.
# Assay: soluble on expression in E. coli; label from the status in PepcDB or PDB records
row,Sequence,soluble on expression in E. coli
1,MAGDPMGQKTQQDIVAGLDEKAKEYTSYKAKAKMTIETGSEPQVYNVEIWHKKPSLYRVYLENPKKDQNQVILRNENGVFVLTPSLNKSFRFQSDWPNNSSQVYLFESLVKDVQNDSDAVFTAKEKKYVFETKTNYQHNKMLPTQEITFNKKDMSPSSVKVMDTDRKVMVKVEFSSFEFNKQFDKESFDEKKNMTLSQMDVATSAKPSDTFAVKTPLELPLGVKLLEEKDISTEDGKRIIMTYGGEKSFTLIQEKAQIAKASSSVTLNGEPVNLGYTIGALSDASLSWTYDGVDYLLSSKDLSKEEMVTVAKSMQGQSSKLEHHHHHH,soluble
2,MAGDPMIMVNLRIINFIGDIMKIRGICYRCGAEDELIDGLCPICYAQEHPLIEVPDRVEIEVCHMCGSYKRKIWQTPKSEEAFEILNEIAYYATKDAIKKKSVMVEVEIYPEVTQLPGGKRSKLIIPVHIVARGRLPGEKEDRTYEKDIEVHLRMVQCPRCSRFMSNYYEATLQVRAMNRYLTEEEREELDNFVREELAKRLKKDRMAFIAKFIPQKEGLDYQLGSVGAARNVAQRIKEKYGGKITETATLVGVDRDSGKELYRVTVSVRVPEYKVGDVVEYKDKYYLVTAITEDKVYMKSIDYKREKIGLAWHIAEKETKMAKKKDELDTATVIATTPTIMVMDDKSYEVYEFDNIGDVKIKEGDKVKIFKKEGVSYLVNKIEGKDKQLEHHHHHH,soluble
3,MAGDPMLKGRQTWEFENRPVILSSAATAGPFEANGPLADDFDILFEDMWLGEDSFEKAQKVLIEEAAKTAIEKAGIQNDDIQFVFAGDLLNQMTSTSFACRSLCIPYFGLFGACSTSMEGLALAAFVINHSGANYVLTGSTSHNAAIEKQFRYPTEYGAQKPPTAQWTATAAGVGVVAKVGSGPVVTSATIGKVVDMGLSDPFNMGEAMAPAAADTIEMHFQERGVGPDYYDLIATGDLGKIGLPIVKEMLEQKGYSFNDGQLNDCGLMIYRDGQPVLAGGSGSGCSASVTYGHLLNRMKKGEINRMLIVATGALLSPMSYQQNETIPCIAHAVSIEAGGALALEHHHHHH,not soluble
4,MAGDPMNFVTTLTYLLPHRMLSSLARHVAYCQHPLIKQWLIDTVIAKFDVNLSEAAEPDAHAYPSFNAFFTRSLKTGIRLPDPNPDTLLMPADGRISQLGPIREGRIFQAKGQSFTATELLGDTAAAAAFTNGLFATVYLSPRDYHRVHMPCTGQLLKTVHVPGRLFSVGPDAVRQIPRLFARNERLACHFDTAFGPMVLVMVGALLVSGVETVWGGVEIPAYGDRITHKDYQGRNIAIERFAEMARFNYGSTVIVLLPPNVFTLAPHLTAESPVTLGQALAHRLSLNHSTQAPTQEKLEHHHHHH,not soluble
5,MAGDPMNVNVEDNAKVTLTSQGATKIYKTPSNHVEQYQTFNLKDNAYLEYVADPIIAYENAKFYQHNTFNLNNSSSLFYTDILTPGYSKTGEAFKYQYMHLINEIYIEDELVTYDNLLLNPNKQSINEIGYMEHYSHYGSAYFIHEDVNQKLIDSVYETISSYSNTFDCRVAISQLPTHGFAVRIFAYRTQIIEKILGIIQSYIAENIYDRKLDFLRKYLEHHHHHH,not soluble
6,MAGDPMRLEIAEKYMAEAYEYLKKGDTIQASGKAYKVAEEIVKAIKFLISKLIGQDVGVISPYRTQVRKLDQELANYKPYVEVNTVDAFQGREKDVIIFSVTATNGLRFVTNRRRLNVAFTRPRYKLIVLGNENSIMSCQMTICLEHHHHHH,not soluble
7,MAGDPMSTVAFHTLGCKVNHYETEAIWQLFKEANYERVDFEANADVFVINTCTVTNTGDKKSRQIIRRAIRQNPDAVICVTGCYAQTSSAEIMEIPGVDVVVGTQDRHKLLGYIDEFRKERQPINGVGNIMKNRKYEELDVPYFTDRTRASLKIQEGCNNFCTFCIIPWARGLMRSRDPEKVVEQATQLVNSGYKEIVLTGIHTGGYGQDLKDYNLAQLLRDLETINGLERIRISSIEASQLTDEVIDVLERSTKVVRHLHIPLQSGSDTVLKRMRRKYTMDRFSERLTKLHKALPDLAVTSDVIVGFPGETEAEFQETYDFIVKHKFSELHVFPYSPRIGTPAARMDDQIDEEIKNERVHKLITLSNQLGKLYASKFDQDVLEVIPEEQGDTEGTLVGYADNYMKVQFEGDESLIGQIVKVKITQANYPLNEGQAIKVVDFATNKSDREVLVLEHHHHHH,soluble
8,MAGDPMTIYEQHFIFSDRIVPIRVRENKYARRLILRIDARGREICVTTPPAINLYSIQGFIAKHQSWIEARLARVQIAHANSYLKEGTKIPLLGIPHTIQRKEGRGITEIVAGDVRQEPKIVVYGQLEYLPRRIADVLKKQAALIITPLVKCYARKVERKVKSICYKDTKSRWGSCSIHGNLSFSWRLVMAPQEVIEYVVAHEVAHLIEMNHGPKFWALCEKLCPKSEAYRTWLKENGHMLQAVNFHSYRLEILEHHHHHH,soluble
9,MAGDPNSMKRKPAVAGLFYPSRRDELIEQIRMCFLDKRIGPGKLPGPVETKLQNPIGLVSPHAGYIYSGPVAAWGFLEAVKFGEPSVVVIIGPNHTGLGRPVGVWPEGEWETPLGTVPVNERAVEIVLSNSRYAEEDFMSHIREHSIEVQIPFLQFVFGEVSIVPICLMDQSPAVAEDLASALAKLVAEFPGVLIIASTDLNHYEDQRTTLRKDSYIIEAIEGMDPSLLYEYLVREDISMCGYGGVATLLNMDFENVRILKHATSGDVSGDTLEVVGYLSAILFLEHHHHHH,not soluble
10,MAGDPNSMKYSDLRDFIAQLESRELLKRIDYPVSPHLEMTLVSDKVLRSGGPALLFTNTPNYNMPVLTNLFGTVERVALGMGEESIVALREIGKLLAALKEPDPPKGFKDAFSKLPLLKQALNMAPKYVSGAECQTHVWEKDEVDLTLLPIQTCWPGDVAPLITWGLVTTRGPHQSRENMGIYRQQLLSKNKLIMRWLSHRGGALDYQAWQQEYPKERFPVAVTLGADPATILAAVTPVPDTLSEYAFAGLLRGQRTRLTRCIGNDLHVPASAEIVLEGYLEPGNEAPEGPYGDHTGYYNEVQSFPVFTVERITHRDKPIYHSTYTGRPPDEPAILGVALNEVFIPLLQKQFPEIVDFYLPPEGCSYRLAVVTIKKQYPGHAKRIMMAVWSFLRQFMYTKFVIVCDDDVDARNWQDVIWAMTTRMDPSRDTVMVENTPIDYLDFASPVSGLGSKMGMDATSKWPGETQREWGKPITMDEDVLNRVNGYWSLLGLKLEHHHHHH,not soluble
11,MAGLGELERAVMDHLWSTSEPQTVRQVHEALAARRELAYTTVMTVLQRLAKKHLVIQQRDDRAHRYLPVHQREELVASLMVDALQQADKSGSRAAALVHFVGQVGADEADALREALAALEAKERSTGDNQSGTVRAG,not soluble
12,MAGLGHPAAFGRATHAVVRALPESLGQHALRSAKGEEVDVARAERQHQLYVGVLGSKLGLQVVELPADESLPDCVFVEDVAVVCEETALITRPGAPSRRKEVDMMKEALEKLQLNIVEMKDENATLDGGDVLFTGREFFVGLSKRTNQRGAEILADTFKDYAVSTVPVADGLHLKSFCSMAGPNLIAIGSSESAQKALKIMQQMSDHRYDKLTVPDDIAANCIYLNIPNKGHVLLHRTPEEYPESAKVYEKLKDHMLIPVSMSELEKVDGLLTCCSVLINKKVDS,not soluble
13,MAGNSNLMIKTLRKISEILKKPPKASSESDVTVRDKACQALGSIKRLIGDTITAFIGPISTETAKIEKINQYQQEAAEEFKKFQETQPKAGGDGGAENSAENLDENQENSPEKAEKPQVLDAWELLEPEDCSKKIDKSVETQLIDKNWKERLAGAENVKKSMENAGRIEISERLTEISKLLMKIVEKDVNVNVGAISAQILAEIAKKSRFSFAPLALRAFPVVFDKLKDKKAILRDALVEFCDEAANTTPLSAYSEAVITALSNKNPQARQQTALFLSRFFAKNDPKTVETEAVKQLAEHILKTSNDADKEVREAALRIVAAVQKCLGEGVAKRLLAEVYDDKLKAEKLPPLIEELEKEFGSSASPEMLRLAKHYKIGASSTSAPPKTTAAGAPKRPSSAVAPRRAPPASAAPTRRAPSPKAPVVAPTRRAPSPKAPVASVAPVKPKPFVARPAPSFGKPRAAVAPARAPQITQRAPAATRPSTSAIRVTPIAPNVVRNGAPTTAQQAPRKPIGIARPQTSSGIAAPGAPRSRIAMPTTSSSSLARRPGSASSSVPRVPTGAASMTSSSRIRPPSRPGSRPGSRNE,not soluble
14,MAGQVVVNDHLADKAGLQVPVEAEIRLKGEDIPFVSRGGLKLARALEEFGIDVADMTAIDVGASTGGFTDCLLQRGARKVYAVDVGYGQLAWKLRQDSRVVNLEKTNIRYLEPGALPETPGLAVIDASFISLDKVLPSTLRLIGEEGVIVALIKPQFEVGRGEVGKGGVVRDEEKHRRVIADVVALAEGLGLMVLGVTESPILGPKGNREFLIHLKKAVGETPPHNR,not soluble
